Results published in patent US20070077603A1 (published 2007).
Each block holds one molecule with its values, some of them ahead of it.

Tests used:
[1] = molecular target: FXa/FVa (prothrombinase components) (UniProt P00742); assay: cell-based or functional assay
[2] = molecular target: FXa/FVa (prothrombinase components) (UniProt P00742 41-179; P00742 235-488; P12259 29-737; P12259 1574-2224); assay: cell-based or functional assay
[3] = molecular target: T1, C4b-binding protein (human, UniProt P04003 49-597; P20851 18-252); assay: complex in hirudin-plasma, Superose-6 gel filtration and immunoblot from native PAGE
T1 construct: Endogenous plasma protein; also called C4BP
T1 sequence (looked up) 1: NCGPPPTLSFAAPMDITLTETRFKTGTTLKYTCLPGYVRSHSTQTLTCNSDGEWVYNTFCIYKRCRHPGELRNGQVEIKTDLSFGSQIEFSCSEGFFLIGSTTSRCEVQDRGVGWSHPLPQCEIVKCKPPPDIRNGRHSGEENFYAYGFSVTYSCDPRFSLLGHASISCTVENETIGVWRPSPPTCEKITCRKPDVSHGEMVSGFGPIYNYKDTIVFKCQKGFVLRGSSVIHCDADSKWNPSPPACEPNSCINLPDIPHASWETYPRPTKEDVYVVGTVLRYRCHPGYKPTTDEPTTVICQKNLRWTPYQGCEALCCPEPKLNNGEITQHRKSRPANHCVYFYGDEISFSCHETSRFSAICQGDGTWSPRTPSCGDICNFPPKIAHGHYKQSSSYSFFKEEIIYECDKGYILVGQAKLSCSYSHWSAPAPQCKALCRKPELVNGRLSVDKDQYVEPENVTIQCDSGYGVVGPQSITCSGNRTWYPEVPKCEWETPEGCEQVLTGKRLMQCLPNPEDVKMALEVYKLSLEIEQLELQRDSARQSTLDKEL
T1 sequence (looked up) 2: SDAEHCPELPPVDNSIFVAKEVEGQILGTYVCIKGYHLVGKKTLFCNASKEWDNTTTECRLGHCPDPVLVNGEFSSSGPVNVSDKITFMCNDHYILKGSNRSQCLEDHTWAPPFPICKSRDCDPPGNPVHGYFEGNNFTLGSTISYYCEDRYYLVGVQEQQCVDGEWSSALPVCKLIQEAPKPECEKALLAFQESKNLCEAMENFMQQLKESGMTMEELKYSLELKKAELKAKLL
Protocol: Gel filtration - - - Purified protein S preparations or hirudin-plasma (200 μl ) were fractionated on a 1×30 cm Superose-6 HR column using Fast Performance Liquid Chromatography (Amersham-Pharmacia, Piscattaway, N.J.) at a flow rate of 0.4 ml/min in Hepes-buffered saline (HBS). Hirudin and citrated plasmas (300 ul) were each mixed with 700 μl of 50 mM benzamidine and fractionated on a 1.6×60 cm Sephacryl-300 column at a flow rate of 0.4 ml/min in Tris-buffered saline. Fractions were analyzed for protein S antigen by ELISA, for protein S multimers by native PAGE, and for PS-direct. ELISAs were also performed on the fractions for FV, FX, and C4BP antigens
Fractionation of plasma - - - When hirudin-plasma was gel-filtered on Superose-6 (FIG. 8A), forms that could be identified by immunoblotting from native PAGE were PS-C4BP complexes (fractions 31-39), followed by putative protein S multimers of three types (arrows), and monomeric protein S (fractions 47-54). A smeared band near the void volume marked with ? […] The original quantity of multimers may have been greater than seen in FIG. 8A, since there was evidence of dissociation to monomer in most fractions. […]

[4] = molecular target: T2, recombinant human Gas6 (human, UniProt Q14393 49-678, limits assumed); assay: ligand blot from native 10% PAGE, biotin-DIP-FXa, streptavidin-HRP
T2 construct: Control vitamin K-dependent protein on the ligand blot (200 ng)
T2 sequence (looked up): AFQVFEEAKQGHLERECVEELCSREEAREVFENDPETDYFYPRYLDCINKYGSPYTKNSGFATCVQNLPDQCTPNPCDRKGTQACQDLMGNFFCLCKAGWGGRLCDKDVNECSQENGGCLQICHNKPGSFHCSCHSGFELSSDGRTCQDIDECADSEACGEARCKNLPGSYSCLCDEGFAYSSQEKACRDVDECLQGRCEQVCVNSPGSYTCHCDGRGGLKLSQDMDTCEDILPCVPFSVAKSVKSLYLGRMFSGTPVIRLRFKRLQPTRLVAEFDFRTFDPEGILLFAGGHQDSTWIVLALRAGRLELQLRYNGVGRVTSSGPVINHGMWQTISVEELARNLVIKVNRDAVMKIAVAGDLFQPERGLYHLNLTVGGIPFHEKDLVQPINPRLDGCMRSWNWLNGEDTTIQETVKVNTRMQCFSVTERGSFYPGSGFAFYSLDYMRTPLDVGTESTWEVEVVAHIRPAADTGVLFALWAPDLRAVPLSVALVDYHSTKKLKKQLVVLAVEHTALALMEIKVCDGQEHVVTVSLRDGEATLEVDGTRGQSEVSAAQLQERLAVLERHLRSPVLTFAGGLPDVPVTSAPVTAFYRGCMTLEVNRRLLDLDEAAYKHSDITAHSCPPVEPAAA
Protocol: (§1) For ligand blotting, FXa was treated with diisoproylfluorophosphate until >95% of its amidolytic activity was lost and then biotinylated as described (Heeb, et al. (1994) Proc. Natl. Acad. Sci. USA 91, 2728-2732). Blots containing 200 ng of protein S or control proteins were incubated with 3 μg/ml of this DIP-FXa for 1 h, followed by streptavidin-horse radish peroxidase (Pierce), chemiluminescent substrate and film exposure.
(§2) Ligand blotting of DIP-FXa to protein S monomers and dimers - - - Biotin-DIP-FXa could ligand blot to both protein S monomers and dimers, but not to two other vitamin K-dependent proteins (FIG. 3). DIP-FXa ligand blotted to monomers and multimers of protein S on native 10% PAGE, but not to human protein C or recombinant human Gas6. […] Note that protein S no. 1 has few monomers compared to protein S no. 2,and protein S no. 2 is <50% monomeric. (see FIG. 4).

[5] = molecular target: T3, human protein C (human, UniProt P04070 43-197; P04070 200-461); assay: as above
T3 construct: Control vitamin K-dependent protein on the ligand blot (200 ng)
Protocol: as §1, §2

Chain of FXa/FVa (prothrombinase components) (UniProt P00742 41-179; P00742 235-488; P12259 29-737; P12259 1574-2224) (P12259 29-737 limits assumed, chain 3 of 2): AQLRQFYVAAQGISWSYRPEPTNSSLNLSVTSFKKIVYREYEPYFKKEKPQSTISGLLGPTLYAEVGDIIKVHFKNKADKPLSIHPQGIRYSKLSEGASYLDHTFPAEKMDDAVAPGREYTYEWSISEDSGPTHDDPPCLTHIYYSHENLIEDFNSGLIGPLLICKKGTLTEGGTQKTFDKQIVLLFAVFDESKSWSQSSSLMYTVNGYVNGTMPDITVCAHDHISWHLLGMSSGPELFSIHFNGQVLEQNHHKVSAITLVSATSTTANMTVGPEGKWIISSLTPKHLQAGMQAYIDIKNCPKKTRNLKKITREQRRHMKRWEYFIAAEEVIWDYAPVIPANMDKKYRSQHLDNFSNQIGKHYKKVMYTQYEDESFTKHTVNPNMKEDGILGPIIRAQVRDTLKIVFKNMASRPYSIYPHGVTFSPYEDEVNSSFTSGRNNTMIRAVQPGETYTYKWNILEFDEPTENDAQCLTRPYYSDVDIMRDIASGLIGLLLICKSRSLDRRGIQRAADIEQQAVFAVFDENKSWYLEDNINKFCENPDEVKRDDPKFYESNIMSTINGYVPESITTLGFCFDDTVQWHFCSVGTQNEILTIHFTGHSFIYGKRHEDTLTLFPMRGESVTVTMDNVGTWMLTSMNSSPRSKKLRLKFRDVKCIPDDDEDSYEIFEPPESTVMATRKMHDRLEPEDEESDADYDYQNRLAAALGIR
Chain of FXa/FVa (prothrombinase components) (UniProt P00742 41-179; P00742 235-488; P12259 29-737; P12259 1574-2224) (P12259 1574-2224 limits assumed, chain 4 of 2): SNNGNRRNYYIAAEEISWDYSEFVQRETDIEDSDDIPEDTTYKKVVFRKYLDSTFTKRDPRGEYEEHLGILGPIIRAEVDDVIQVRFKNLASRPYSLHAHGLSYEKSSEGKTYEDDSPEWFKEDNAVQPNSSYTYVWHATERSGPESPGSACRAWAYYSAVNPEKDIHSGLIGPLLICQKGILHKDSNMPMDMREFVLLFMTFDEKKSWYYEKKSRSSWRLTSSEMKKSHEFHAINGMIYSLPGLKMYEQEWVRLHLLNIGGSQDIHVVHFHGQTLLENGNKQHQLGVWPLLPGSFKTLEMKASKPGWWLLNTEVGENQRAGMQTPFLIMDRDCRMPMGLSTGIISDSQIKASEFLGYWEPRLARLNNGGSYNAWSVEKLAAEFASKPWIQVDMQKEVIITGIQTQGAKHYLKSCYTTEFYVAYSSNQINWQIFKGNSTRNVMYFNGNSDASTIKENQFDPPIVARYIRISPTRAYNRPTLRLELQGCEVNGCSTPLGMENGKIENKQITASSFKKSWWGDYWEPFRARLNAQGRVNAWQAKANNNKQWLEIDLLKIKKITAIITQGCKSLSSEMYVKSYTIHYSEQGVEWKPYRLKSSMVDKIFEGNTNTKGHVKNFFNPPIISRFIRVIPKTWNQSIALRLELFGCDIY
Chain of FXa/FVa (prothrombinase components) (UniProt P00742) (P12259 29-737 limits assumed, chain 3 of 2): as the sequence (P12259 29-737 limits assumed, chain 3 of 2) above
Chain of FXa/FVa (prothrombinase components) (UniProt P00742) (P12259 1574-2224 limits assumed, chain 4 of 2): as the sequence (P12259 1574-2224 limits assumed, chain 4 of 2) above
T3 sequence (P04070 43-197, chain 1 of 2): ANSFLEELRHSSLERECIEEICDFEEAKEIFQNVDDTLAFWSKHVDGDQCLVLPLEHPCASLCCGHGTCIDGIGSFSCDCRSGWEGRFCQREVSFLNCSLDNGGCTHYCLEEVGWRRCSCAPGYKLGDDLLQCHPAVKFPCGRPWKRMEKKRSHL
T3 sequence (P04070 200-461, chain 2 of 2): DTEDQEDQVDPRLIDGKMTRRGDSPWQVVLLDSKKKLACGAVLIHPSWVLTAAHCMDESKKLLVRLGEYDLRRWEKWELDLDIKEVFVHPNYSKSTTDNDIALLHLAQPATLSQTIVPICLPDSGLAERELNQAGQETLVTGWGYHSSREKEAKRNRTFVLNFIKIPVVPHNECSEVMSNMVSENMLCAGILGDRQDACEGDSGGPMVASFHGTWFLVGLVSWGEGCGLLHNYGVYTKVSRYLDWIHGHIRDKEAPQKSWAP

Inhibition of prothrombinase, IC50 @ 25 µM PL, nM (total moles of protein S monomeric subunits) [1]: 111 nM
Inhibition of prothrombinase, IC50 @ 25 µM PL, nM of specific form [1]: 28 nM
Molecule: protein S forms >Trimer (from UniProt P07225 42-676)

Inhibition of prothrombinase, IC50 @ 25 µM PL, nM (total moles of protein S monomeric subunits) [2]: 119 nM
Inhibition of prothrombinase, IC50 @ 25 µM PL, nM of specific form [2]: 119 nM of specific form
B1: protein S monomers (purified) (other, UniProt P07225 42-676, looked up)
chain: ANSLLEETKQGNLERECIEELCNKEEAREVFENDPETDYFYPKYLVCLRSFQTGLFTAARQSTNAYPDLRSCVNAIPDQCSPLPCNEDGYMSCKDGKASFTCTCKPGWQGEKCEFDINECKDPSNINGGCSQICDNTPGSYHCSCKNGFVMLSNKKDCKDVDECSLKPSICGTAVCKNIPGDFECECPEGYRYNLKSKSCEDIDECSENMCAQLCVNYPGGYTCYCDGKKGFKLAQDQKSCEVVSVCLPLNLDTKYELLYLAEQFAGVVLYLKFRLPEISRFSAEFDFRTYDSEGVILYAESIDHSAWLLIALRGGKIEVQLKNEHTSKITTGGDVINNGLWNMVSVEELEHSISIKIAKEAVMDINKPGPLFKPENGLLETKVYFAGFPRKVESELIKPINPRLDGCIRSWNLMKQGASGIKEIIQEKQNKHCLVTVEKGSYYPGSGIAQFHIDYNNVSSAEGWHVNVTLNIRPSTGTGVMLALVSGNNTVPFAVSLVDSTSEKSQDILLSVENTVIYRIQALSLCSDQQSHLEFRVNRNNLELSTPLKIETISHEDLQRQLAVLDKAMKAKVATYLGGLPDVPFSATPVNAFYNGCMEVNINGVQLDLDEAISKHNDIRAHSCPSVWKKTKNS

Inhibition of prothrombinase, IC50 @ 25 µM PL, nM (total moles of protein S monomeric subunits) [2]: 109 nM
Inhibition of prothrombinase, IC50 @ 25 µM PL, nM of specific form [2]: 54 nM of specific form
B2: protein S dimers (purified) (other, UniProt P07225 42-676, looked up)
chain: ANSLLEETKQGNLERECIEELCNKEEAREVFENDPETDYFYPKYLVCLRSFQTGLFTAARQSTNAYPDLRSCVNAIPDQCSPLPCNEDGYMSCKDGKASFTCTCKPGWQGEKCEFDINECKDPSNINGGCSQICDNTPGSYHCSCKNGFVMLSNKKDCKDVDECSLKPSICGTAVCKNIPGDFECECPEGYRYNLKSKSCEDIDECSENMCAQLCVNYPGGYTCYCDGKKGFKLAQDQKSCEVVSVCLPLNLDTKYELLYLAEQFAGVVLYLKFRLPEISRFSAEFDFRTYDSEGVILYAESIDHSAWLLIALRGGKIEVQLKNEHTSKITTGGDVINNGLWNMVSVEELEHSISIKIAKEAVMDINKPGPLFKPENGLLETKVYFAGFPRKVESELIKPINPRLDGCIRSWNLMKQGASGIKEIIQEKQNKHCLVTVEKGSYYPGSGIAQFHIDYNNVSSAEGWHVNVTLNIRPSTGTGVMLALVSGNNTVPFAVSLVDSTSEKSQDILLSVENTVIYRIQALSLCSDQQSHLEFRVNRNNLELSTPLKIETISHEDLQRQLAVLDKAMKAKVATYLGGLPDVPFSATPVNAFYNGCMEVNINGVQLDLDEAISKHNDIRAHSCPSVWKKTKNS

The remaining lines, values behind:

Molecule: protein S Dimer-Trimer fraction (from UniProt P07225 42-676)
Inhibition of prothrombinase, IC50 @ 25 µM PL, nM (total moles of protein S monomeric subunits) [1]: 116 nM
Inhibition of prothrombinase, IC50 @ 25 µM PL, nM of specific form [1]: 46 nM

Molecule: protein S Trimer (from UniProt P07225 42-676)
Inhibition of prothrombinase, IC50 @ 25 µM PL, nM (total moles of protein S monomeric subunits) [1]: 113 nM
Inhibition of prothrombinase, IC50 @ 25 µM PL, nM of specific form [1]: 38 nM

B3: monomeric protein S in plasma (other, human, UniProt P07225 42-676, looked up)
chain: ANSLLEETKQGNLERECIEELCNKEEAREVFENDPETDYFYPKYLVCLRSFQTGLFTAARQSTNAYPDLRSCVNAIPDQCSPLPCNEDGYMSCKDGKASFTCTCKPGWQGEKCEFDINECKDPSNINGGCSQICDNTPGSYHCSCKNGFVMLSNKKDCKDVDECSLKPSICGTAVCKNIPGDFECECPEGYRYNLKSKSCEDIDECSENMCAQLCVNYPGGYTCYCDGKKGFKLAQDQKSCEVVSVCLPLNLDTKYELLYLAEQFAGVVLYLKFRLPEISRFSAEFDFRTYDSEGVILYAESIDHSAWLLIALRGGKIEVQLKNEHTSKITTGGDVINNGLWNMVSVEELEHSISIKIAKEAVMDINKPGPLFKPENGLLETKVYFAGFPRKVESELIKPINPRLDGCIRSWNLMKQGASGIKEIIQEKQNKHCLVTVEKGSYYPGSGIAQFHIDYNNVSSAEGWHVNVTLNIRPSTGTGVMLALVSGNNTVPFAVSLVDSTSEKSQDILLSVENTVIYRIQALSLCSDQQSHLEFRVNRNNLELSTPLKIETISHEDLQRQLAVLDKAMKAKVATYLGGLPDVPFSATPVNAFYNGCMEVNINGVQLDLDEAISKHNDIRAHSCPSVWKKTKNS
notes: mature; also called monomers
binding result [3]: binds

B4: Biotin-DIP-FXa (enzyme)
chain 1: ANSFLEEMKKGHLERECMEETCSYEEAREVFEDSDKTNEFWNKYKDGDQCETSPCQNQGKCKDGLGEYTCTCLEGFEGKNCELFTRKLCSLDNGDCDQFCHEEQNSVVCSCARGYTLADNGKACIPTGPYPCGKQTLER
chain 2: IVGGQECKDGECPWQALLINEENEGFCGGTILSEFYILTAAHCLYQAKRFKVRVGDRNTEQEEGGEAVHEVEVVIKHNRFTKETYDFDIAVLRLKTPITFRMNVAPACLPERDWAESTLMTQKTGIVSGFGRTHEKGRQSTRLKMLEVPYVDRNSCKLSSSFIITQNMFCAGYDTKQEDACQGDSGGPHVTRFKDTYFVTGIVSWGEGCARKGKYGIYTKVTAFLKWIDRSMKTRGLPKAKSHAPEVITSSPLK
modifications: treated with diisoproylfluorophosphate until >95% of its amidolytic activity was lost and then biotinylated; biotinylated (sites not given)
notes: Used at 3 µg/ml as probe in ligand blots; also called FXa treated with diisopropylfluorophosphate and biotinylated
binding result [4]: no binding
binding result [5]: no binding
